Data taken from publication PMC11095200.

Target: StAR (UniProt P51557)
Experiment: co-immunoprecipitation and western blot
Conditions: reference: wild-type 14-3-3γ; sites S71

Question: “14-3-3γ (from UniProt P61982) S71A 14-3-3γ” was tested. Which “binding against the reference” value did it give?
Answer: weaker
